Results from paper PMC8830681, “Circadian control of heparan sulfate levels times phagocytosis of amyloid beta aggregates” (PLoS Genetics, 2022).
Ends that are not written are not given here.

B1: Heparinase III: Recombinant Flavobacterial heparin lyase III; cleaves in low or unsulfated regions of HSPGs (protein, UniProt Q59289 25-659, looked up)
Heparin-sulfate lyase: QSSSITRKDFDHINLEYSGLEKVNKAVAAGNYDDAAKALLAYYREKSKAREPDFSNAEKPADIRQPIDKVTREMADKALVHQFQPHKGYGYFDYGKDINWQMWPVKDNEVRWQLHRVKWWQAMALVYHATGDEKYAREWVYQYSDWARKNPLGLSQDNDKFVWRPLEVSDRVQSLPPTFSLFVNSPAFTPAFLMEFLNSYHQQADYLSTHYAEQGNHRLFEAQRNLFAGVSFPEFKDSPRWRQTGISVLNTEIKKQVYADGMQFELSPIYHVAAIDIFLKAYGSAKRVNLEKEFPQSYVQTVENMIMALISISLPDYNTPMFGDSWITDKNFRMAQFASWARVFPANQAIKYFATDGKQGKAPNFLSKALSNAGFYTFRSGWDKNATVMVLKASPPGEFHAQPDNGTFELFIKGRNFTPDAGVFVYSGDEAIMKLRNWYRQTRIHSTLTLDNQNMVITKARQNKWETGNNLDVLTYTNPSYPNLDHQRSVLFINKKYFLVIDRAIGEATGNLGVHWQLKEDSNPVFDKTKNRVYTTYRDGNNLMIQSLNADRTSLNEEEGKVSYVYNKELKRPAFVFEKPKKNAGTQNFVSIVYPYDGQKAPEISIRENKGNDFEKGKLNLTLTINGKQQLVLVP
B2: Heparinase II: Recombinant Flavobacterial heparin lyase II; cleaves in both high- and low-sulfated positions (protein, UniProt C6XZB6 26-772, looked up)
Heparin and heparin-sulfate …: QTKADVVWKDVDGVSMPIPPKTHPRLYLREQQVPDLKNRMNDPKLKKVWADMIKMQEDWKPADIPEVKDFRFYFNQKGLTVRVELMALNYLMTKDPKVGREAITSIIDTLETATFKPAGDISRGIGLFMVTGAIVYDWCYDQLKPEEKTRFVKAFVRLAKMLECGYPPVKDKSIVGHASEWMIMRDLLSVGIAIYDEFPEMYNLAAGRFFKEHLVARNWFYPSHNYHQGMSYLNVRFTNDLFALWILDRMGAGNVFNPGQQFILYDAIYKRRPDGQILAGGDVDYSRKKPKYYTMPALLAGSYYKDEYLNYEFLKDPNVEPHCKLFEFLWRDTQLGSRKPDDLPLSRYSGSPFGWMIARTGWGPESVIAEMKVNEYSFLNHQHQDAGAFQIYYKGPLAIDAGSYTGSSGGYNSPHNKNFFKRTIAHNSLLIYDPKETFSSSGYGGSDHTDFAANDGGQRLPGKGWIAPRDLKEMLAGDFRTGKILAQGFGPDNQTPDYTYLKGDITAAYSAKVKEVKRSFLFLNLKDAKVPAAMIVFDKVVASNPDFKKFWLLHSIEQPEIKGNQITIKRTKNGDSGMLVNTALLPDAANSNITSIGGKGKDFWVFGTNYTNDPKPGTDEALERGEWRVEITPKKAAAEDYYLNVIQIADNTQQKLHEVKRIDGDKVVGVQLADRIVTFSKTSETVDRPFGFSVVGKGTFKFVMTDLLPGTWQVLKDGKILYPALSAKGDDGALYFEGTEGTYRFLR
B3: Heparinase I: Recombinant Flavobacterial heparin lyase I; cleaves in highly sulfated regions of HSPGs (protein, UniProt Q05819 22-384, looked up)
Heparin lyase I: QQKKSGNIPYRVNVQADSAKQKAIIDNKWVAVGINKPYALQYDDKLRFNGKPSYRFELKAEDNSLEGYAAGETKGRTELSYSYATTNDFKKFPPSVYQNAQKLKTVYHYGKGICEQGSSRSYTFSVYIPSSFPDNATTIFAQWHGAPSRTLVATPEGEIKTLSIEEFLALYDRMIFKKNIAHDKVEKKDKDGKITYVAGKPNGWKVEQGGYPTLAFGFSKGYFYIKANSDRQWLTDKADRNNANPENSEVMKPYSSEYKTSTIAYKMPFAQFPKDCWITFDVAIDWTKYGKEANTILKPGKLDVMMTYTKNKKPQKAHIVNQQEILIGRNDDDGYYFKFGIYRVGNSTVPVTYNLSGYSETAR

Experiments:
[1] = system: bone-marrow derived macrophages (BMDMs) from Per2::Luc C57BL/6J mice; assay: Phagocytosis assay of HiLyte 488 labeled amyloid-beta by serum-shock synchronized macrophages (with or without heparinases); format: cell-based, mouse; conditions: for circadian oscillation of the peptide's own phagocytosis (in words): HiLyte 488 labeled peptide, 2 h uptake, mAβ42 every 4 h for 24 h (ECHO), Aβ40 at PS20 and PS32; for Hedges' g, phagocytosis vs Aβ42-alone at PS20 (nadir, CT8) / Hedges' g, phagocytosis vs Aβ42-alone at PS32 (zenith, CT20): >100 cells per replicate, g >0.2 small, >0.5 medium, >0.8 large effect; for Hedges' g, phagocytosis PS20 vs PS32 within the same treatment: for heparinases: Aβ42 phagocytosis in their presence; for effect of heparinase treatment on the daily oscillation of Aβ42 phagocytosis (in words): heparinase added immediately before HiLyte 488 Aβ42, cells sampled 2 h later
Source text: To do so, we modified a previously-employed BMDM phagocytosis assay (as BMDMs are both models for activated microglia and are known to migrate into the brain in late-stage AD), to use fluorescently labeled Aβ42 to determine if the phagocytosis of Aβ42 is controlled by the circadian clock. In brief, BMDMs were derived from bone marrow progenitor cells extracted from Per2::Luc C57BL/6J mice and differentiated with recombinant Macrophage Colony Stimulating Factor (M-CSF), with flow cytometry confirming complete differentiation into naïve peripheral macrophages. […] 16 h after synchronization, confluent dishes of these BMDMs were treated HiLyte 488 labeled Aβ42 (Anaspec), in triplicate, every 4 h over a 24 h circadian period. BMDMs treated with labeled Aβ42 were harvested two hours after Aβ42 treatment and fixed with formalin. Total cellular fluorescence levels were analyzed with fluorescent confocal microscopy and quantified using a custom cell measurement MATLAB script (Fig 1A, S2 Fig, and S1 Table).
Bone marrow was harvested from the femurs and tibias of one 3–6-month-old male mouse using a 26 g needle and syringe filled with DMEM supplemented media. ACK lysing buffer (Lonza 10-548E) was used to lyse red blood cells in order to prevent erythrocyte contamination. Filtered bone marrow cells were counted using a BioRad TC20 automated cell counter and plated on 35 mm cell culture plates at a density of 1 x 10^6 in macrophage differentiation media. After three days of incubation at 37°C with 5% CO2, fresh macrophage differentiation media was added. After another 3 days of incubation, the cells were washed with 2 ml warm PBS per plate, and replaced with macrophage assay media, and the cultures were incubated for 24 h. Macrophage cultures were then washed with 2 ml warm PBS, macrophage serum starvation media was added, and the plates were incubated in the starve media for 24 h. Next, macrophage serum starvation media was removed, and macrophage serum shock media was added, and cultures were incubated for 2 h. Macrophage cultures were then washed with 2 ml warmed PBS each and macrophage media Luciferin was added. Cultures were sealed with grease and glass cover slips and placed in a LumiCycle 32 luminometer (Actimetrics) to confirm synchronization of circadian rhythmicity. Assays began 16 h post serum shock to allow the synchronized cells to return to homeostasis.
All amyloid-beta isoforms were reconstituted 24 h or less before experimentation in water and PBS (1:1) and were dissolved using sonication for approximately 30 min. The reconstituted Aβ was pooled from individual vials before aliquoting for each experimental replicate. The aliquots were then flash frozen and stored at -80°C until 20 min before use.
Using synchronized macrophages (as described above) starting at PS16 macrophages were treated every 4 h for 24 h, in triplicate, with 115 μl (0.25 mg/ml) of fluorescently labeled amyloid-beta (PS16, PS20, PS24, PS28, PS32, PS36, and PS40) and heparinases at the reported activity levels (S5 Table). The treated macrophages were then incubated at 37°C for 2 h. Following the two-hour incubation, the media was aspirated, and the macrophages were washed with 2ml of PBS three times before Cell Stripper (Corning 25-056-CI) was added to the cultures, which were then incubated at 37°C for 3 min. Detached macrophages were next centrifuged at 400 g for 5 min, the supernatant was aspirated, and the macrophage cell pellets were resuspended in formalin and incubated in the dark at room temperature for 30 min. Macrophages were then centrifuged for 5 min at 400 g, the supernatant was aspirated, and the macrophages were resuspended in 250 μL of PBS and kept at 4°C. The fixed macrophages were imaged using fluorescent microscopy within a week of the experiment. All fluorescent images from the phagocytosis experiments are available on Mendeley Data (doi: 10.17632/zrmgjyggmr.1). […]

[2] = Heparinase enzymatic activity; format: biochemical
Source text: We hypothesized that the rhythmic oscillation of HSPGs may inhibit the phagocytosis of Aβ42 due to the antiphase relationship between Aβ42 phagocytosis and PG levels and the published repressive effect of HSPGs on Aβ42 phagocytosis (Figs 1 and 4). To validate this hypothesis, we individually purified Heparinases I, II, and III, removed endotoxins, and confirmed Heparinase enzymatic activity (see Methods) (S5 Table). Heparinase I cleaves between D-glucosamine and L-iduronic acid in highly sulfated regions, heparinase III cleaves between N-acetyl-D-glucosamine in low or unsulfated regions, and heparinase II cleaves in both positions. We then extracted, derived, synchronized, and exposed BMDMs to fluorescently-labeled Aβ42 every 4 h over one circadian day. We next added a mixture of Heparinase I, II, and III to cleave all forms of HSPGs, with each biological replicate receiving a decreasing concentration of total heparinases (Replicate 1: 0.9577mg/ml of total heparinases, Replicate 2: 0.5071 mg/ml of total heparinases, Replicate 3: 0.2794 mg/ml of total heparinases) of the mixture of the three heparinases (see S5 Table). Immediately following the addition of the heparinases, we added fluorescently labeled Aβ42 and sampled Aβ42 levels inside the cell 2 hours later. By using fluorescently labeled Aβ42, we controlled for endogenously generated Aβ, which can be affected by HSPG expression through its interaction with BACE1 processing of the amyloid precursor protein [67].
Heparinases were prepared as has been previously reported. All heparinases used were purified away from endotoxins using an Endotoxin Removal Kit from GenScript (L00338).

[3] = log10 mean cell fluorescence, triplicate
[4] = heparinase stock of the 'All Hep' experiment
[5] = heparinase stock of the 'Hep I only' / 'Hep III only' experiments

Molecule | Oscillation Type ([1]; ECHO v4.1 fit, average of 3 replicates, log10 mean cell fluorescence, 2 h uptake every 4 h PS16-PS40, WT Per2::Luc BMDMs) | circadian oscillation of the peptide's own phagocytosis (in words) ([1]; triplicate) | phagocytosis compared to human Aβ42 (in words) ([1]; every 4 h for 24 h, triplicate) | Hedges' g, phagocytosis vs Aβ42-alone at PS20 (nadir, CT8) [1, 3] | Hedges' g, phagocytosis vs Aβ42-alone at PS32 (zenith, CT20) [1, 3] | Hedges' g, total phagocytosis of Aβ40 vs Aβ42 at PS20 and PS32 [1, 3] | Hedges' g, phagocytosis PS20 vs PS32 within the same treatment [1, 3] | effect of heparinase treatment on the daily oscillation of Aβ42 phagocytosis (in words) ([1]; triplicate) | Activities (U/ml) [2, 4] [U/ml] | Activities (U/ml) [2, 5] [U/ml]
Mouse amyloid-beta 42 labeled with HiLyte 488 (DAEFGHDSGFEVRHQKLVFFAEDVGSNKGAIIGLMVGGVVIA; also: HiLyte 488 label, site not given here; UniProt P12023 672-713, looked up) [mAβ42, custom mouse Aβ42 labeled with HiLyte 488 from Anaspec (SQ-ANCPXXXX)] | Harmonic | did not have a circadian oscillation | increased phagocytosis compared to human Aβ42 phagocytosis at all sampled times | 3.032 | 2.021 |  |  |  |  | 
Amyloid-beta 40 labeled with HiLyte 488 [Aβ40] |  | no oscillation in Aβ40 phagocytosis |  |  |  | 0.2752 | 0.06734 |  |  | 
B1 |  |  |  | 0.5409 | 0.22 |  | 0.1663 | oscillations in Aβ42 phagocytosis were also ablated | 20.212 | 5.305
B2 |  |  |  |  |  |  |  |  | 1.048 | 
B3 |  |  |  | 0.1328 | 0.635 |  | 0.1017 | loss of daily oscillation | 0.034 | 0.332
